Test results reported in patent publication US12202907B2, “Nucleic acids encoding and methods of producing proteins comprising antibody chains” (Innate Pharma, priority 2018, dated 2025).
Where a chain is given by its changes, count along the chain named. Each block holds one molecule with its values, some of them ahead of it.

How the values were obtained:
[1] = target: T1, human Ramos lymphoma cells (CD39) (Homo sapiens, UniProt P49961); assay: Antibody titration on Ramos cells by flow cytometry; assay type: binding; settings: comparison
T1 construct: cells that endogenously express CD39 at their surface; host or cells: Ramos
T1 sequence (P49961 1-510): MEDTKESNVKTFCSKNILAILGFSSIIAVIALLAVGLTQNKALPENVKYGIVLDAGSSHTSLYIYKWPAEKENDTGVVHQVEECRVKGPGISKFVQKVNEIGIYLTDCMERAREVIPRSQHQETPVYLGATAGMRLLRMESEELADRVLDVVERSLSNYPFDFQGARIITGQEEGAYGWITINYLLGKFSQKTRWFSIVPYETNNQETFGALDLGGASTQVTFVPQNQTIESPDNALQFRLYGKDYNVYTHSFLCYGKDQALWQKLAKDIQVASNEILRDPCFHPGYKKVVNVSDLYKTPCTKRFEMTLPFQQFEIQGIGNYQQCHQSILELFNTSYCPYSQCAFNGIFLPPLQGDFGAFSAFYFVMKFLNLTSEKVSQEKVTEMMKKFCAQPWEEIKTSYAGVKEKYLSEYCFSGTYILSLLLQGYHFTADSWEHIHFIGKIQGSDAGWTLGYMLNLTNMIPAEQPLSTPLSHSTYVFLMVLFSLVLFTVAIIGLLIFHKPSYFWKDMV
Description: Antibody I-394 was tested in two repeated experiments for binding to CHO cells expressing human CD39, CHO cells expressing cynomolgus (Macaca fascicularis) CD39, CHO cells expressing murine CD39, and human Ramos lymphoma cells (ATCC™, reference CRL-1596). Cells were incubated with various concentration of unlabeled anti-CD39 antibody from 30 μg/ml to 5×10^−4 μg/ml, for 30 minutes at 4° C. After washes, cells were incubated with Goat anti-mouse H+L labeled secondary antibody for 30 min at 4° C.

[2] = Stability in reference formulation (storage, freeze thaw); assay type: physicochemical; settings: about 7 mg/mL, pH 6.0 histidine/sucrose/NaCl/PS80, +5° C. and +40° C., up to 1 month
Description: (§1) Antibodies mAb1-24 and prior art anti-CD39 antibody BY40, all produced as human IgG1 isotypes with L234A/L235E/G237A/A330S/P331S substitutions were tested for stability in the following reference formulation at a concentration of approximatively 7 mg/mL: pH 6.0; histidine buffer (10 mM); sucrose (200 mM); NaCl (50 mM); Polysorbate 80 (PS80) (0.2 g/L). The stability of the formulations was monitored in two storage conditions (at +5° C.±3° C. and at +40±3° C. For each study, 3 time points were performed: T0, T15D (15 days) and T1M (1 month). A freeze thaw (F/T) and a thermal shift stability assay (TSSA) were conducted for the format comparison. To perform F/T cycles, the samples were frozen at least 2 hours at −20° C. and thawed at least 1 hour at room temperature, the F/T cycle is repeated three times and samples are tested 24 h after the last Freeze/Thaw cycle. At each time point, the following tests were performed: • Particulate Matter (MFI) • Visual Inspection (Appearance) • Impurities (SE-HPLC) • Turbidity (400 nm) • Protein Concentration (280 nm) (performed with Nanodrop, Thermo Fisher Scientific Inc.)

[3] = Aggregation temperature (thermal shift stability assay); assay type: physicochemical; settings: human IgG1 with L234A/L235E/G237A/A330S/P331S
Description: as §1

[4] = target: T2, CD39 expressed by Ramos human lymphoma cells (Homo sapiens, UniProt P49961); assay: Inhibition of the enzymatic activity of cellular CD39 in Ramos cells; assay type: cell-based; settings: Ramos cells
T2 construct: cells that endogenously express CD39 at their surface; host or cells: Ramos
T2 sequence (P49961 1-510): T1 sequence (P49961 1-510)
Description: The inhibition of the CD39 enzymatic activity in CD39-expressing cells by antibodies was evaluated using Cell Titer GIo™ (Promega, reference G7571) that allows assessment of ATP hydrolysis through use of a reagent that generates a luminescent signal proportional to the amount of ATP present. The assay was thus designed to permit assessment of the inhibition of ATP hydrolyzed by CD39 in the cell culture supernatant. Briefly, 5×10^4 Ramos human lymphoma cells, 5×10^3 human CD39−, cynomolgus CD39—and mouse CD39− expressing CHO cells, were incubated 1 hour at 37° C. with anti-CD39 antibodies from 30 μg/ml to 5×10^−4 μg/ml. Cells were then incubated with 20 μM ATP for 1 additional hour at 37° C. Plates were centrifuged for 2 min at 400 g and 50 μl cell supernatant are transferred in a luminescence microplate (white wells). 50 μl CellTiter-Glo™ Reagent (CTG) was added to the supernatant and emitted light was quantified after a 5 min incubation in the dark using a Enspire™ luminometer. Anti-CD39 antibody efficacy was determined by comparing emitted light in presence of antibody with ATP alone (maximal light emission) and ATP together with cells (minimal light emission).

[5] = target: T3, soluble recombinant human CD39 protein (Homo sapiens, UniProt P49961); assay: Inhibition of the enzymatic activity of soluble CD39 (Cell Titer Glo, cell-free); assay type: biochemical; settings: humanized variants
T3 construct: made in house; host or cells: CHO cells
T3 sequence (P49961 with tags, fused parts or gaps): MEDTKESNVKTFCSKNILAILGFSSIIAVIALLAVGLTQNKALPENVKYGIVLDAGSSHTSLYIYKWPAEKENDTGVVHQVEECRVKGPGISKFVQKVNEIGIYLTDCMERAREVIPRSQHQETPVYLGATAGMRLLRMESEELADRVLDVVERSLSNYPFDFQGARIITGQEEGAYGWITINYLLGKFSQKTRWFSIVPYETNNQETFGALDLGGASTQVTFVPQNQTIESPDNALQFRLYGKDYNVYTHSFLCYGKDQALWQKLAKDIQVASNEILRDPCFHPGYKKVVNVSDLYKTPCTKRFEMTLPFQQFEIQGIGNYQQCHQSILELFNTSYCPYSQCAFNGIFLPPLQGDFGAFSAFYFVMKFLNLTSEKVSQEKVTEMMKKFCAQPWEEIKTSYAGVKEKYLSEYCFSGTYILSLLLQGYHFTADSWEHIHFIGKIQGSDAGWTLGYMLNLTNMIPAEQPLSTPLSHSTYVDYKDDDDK
Description: The inhibition by antibodies of the enzymatic activity of soluble CD39 protein produced was evaluated using Cell Titer GIo™ (Promega, reference G7571) that allows assessment of ATP hydrolysis through use of a reagent that generates a luminescent signal proportional to the amount of ATP present. In this way, inhibition of the soluble-CD39-meidated ATP hydrolysis can be assessed. Briefly, dose ranges of anti-CD39 antibodies from 100 μg/ml to […] were incubated with 400 ng/ml of soluble recombinant human CD39 protein having the amino acid sequence described in the Methods section (SEQ ID NO: 44), for 1 h at 37° C. 20 μM ATP was added to the plates for 30 additional minutes at 37° C. before addition of CTG (Cell Titer Glo) reagent. Emitted light was quantified using an Enspire™ luminometer after a short incubation period of 5 min in the dark. Anti-CD39 antibody efficacy was determined by comparing emitted light in presence of antibody with ATP alone (maximal light emission) and ATP together with soluble CD39 protein (minimal light emission).

binding to Ramos cells relative to I-394 [1]: best binding
B1: mAb8: humanized I-394 variant, VH H2 (SEQ ID NO: 29), VL L1 (SEQ ID NO: 36) (antibody, V domains shown)
VH: QVQLVQSGAEVKKPGASVKVSCKASGYTFTDYNMHWVRQAPGQRLEWMGYIVPLNGGSTFNQKFKGRATITVDTSASTAYMELSSLRSEDTAVYYCARGGTRFAYWGQGTLVTVSS
VL: DIVMTQSPDSLAVSLGERATINCRASESVDNFGVSFMYWFQQKPGQPPKLLIYGASNQGSGVPDRFSGSGSGTDFTLTISSLQAEDVAVYYCQQTKEVPYTFGGGTKVEIK
physicochemical stability [2]: good physicochemical stability
Aggregation temperature (TAgg) [3]: ~70 °C

B2: mAb24: humanized I-394 variant, VH H4* (SEQ ID NO: 34), VL L1* (SEQ ID NO: 37) (antibody, V domains shown)
VH: B1 VH with M48I, N61S, K65Q, S77R
VL: B1 VL with R24K
potency at blocking CD39 enzymatic activity relative to other antibodies [4]: slightly lower potency than mAb20 and mAb21

binding to Ramos cells relative to I-394 [1]: best binding
B3: mAb9: humanized I-394 variant, VH H2 (SEQ ID NO: 29), VL L1* (SEQ ID NO: 37) (antibody, V domains shown)
VH: B1 VH
VL: B1 VL with R24K
physicochemical stability [2]: good physicochemical stability
Aggregation temperature (TAgg) [3]: ~70 °C

B4: mAb15: humanized I-394 variant, VH H3 (SEQ ID NO: 30), VL L1* (SEQ ID NO: 37) (antibody, V domains shown)
VH: B1 VH with M48I
VL: B1 VL with R24K
potency for inhibition of soluble CD39 relative to parental I-394 [5]: comparable to the parental I-394 antibody

B5: mAb23: humanized I-394 variant, VH H4* (SEQ ID NO: 34), VL L1 (SEQ ID NO: 36) (antibody, V domains shown)
VH: B1 VH with M48I, N61S, K65Q, S77R
VL: B1 VL
potency at blocking CD39 enzymatic activity relative to other antibodies [4]: slightly lower potency than mAb20 and mAb21

B6: mAb14: humanized I-394 variant, VH H3 (SEQ ID NO: 30), VL L1 (SEQ ID NO: 36) (antibody, V domains shown)
VH: B1 VH with M48I
VL: B1 VL
potency for inhibition of soluble CD39 relative to parental I-394 [5]: comparable to the parental I-394 antibody
